In assay [1] the target is hydrogen peroxide treated recombinant human interferon beta-1a (human) (UniProt P01574). As to the kind of experiment: SEC. For orientation: Size exclusion chromatography separates by hydrodynamic size, large species first.
The target of assay [2] is metal-catalyzed oxidized recombinant human interferon beta-1a (human) (UniProt P01574). The assay can be described thus: SEC.

On to “hydrogen peroxide treated recombinant human interferon beta-1a (from UniProt P01574 22-187) (natural protein)”, for which the oligomer fraction (%) in assay [1] worked out at 7%.
On to “metal-catalyzed oxidized recombinant human interferon beta-1a (from UniProt P01574 22-187) (natural protein)”, for which the oligomer fraction (%) in assay [2] came to 68%.

For the origin of these results see PMC3170469.
